The values that follow come from patent publication US20210102195A1 (TWIST BIOSCIENCE, published 2021).

Assay [1] deals with T1, CRTH2R (UniProt Q9Y5Y4 1-395, limits assumed).
T1 construct: whole, on cells; also called Prostaglandin D2 receptor 2 (DP2 or CRTH2) receptor
T1 sequence (looked up): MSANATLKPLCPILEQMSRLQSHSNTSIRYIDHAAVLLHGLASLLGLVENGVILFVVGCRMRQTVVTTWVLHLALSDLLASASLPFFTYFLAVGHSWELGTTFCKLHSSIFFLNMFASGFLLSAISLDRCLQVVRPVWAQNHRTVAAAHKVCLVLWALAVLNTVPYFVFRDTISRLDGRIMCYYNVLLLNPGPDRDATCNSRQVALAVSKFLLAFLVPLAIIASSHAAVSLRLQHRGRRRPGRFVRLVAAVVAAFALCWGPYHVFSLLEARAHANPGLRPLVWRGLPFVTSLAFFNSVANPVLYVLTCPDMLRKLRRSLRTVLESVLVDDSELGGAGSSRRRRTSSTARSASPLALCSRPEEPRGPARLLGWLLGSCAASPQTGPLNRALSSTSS
The assay is described as follows: flow cytometry (MFI), CHO CRTH2R-positive cells against parental CHO cells, 3-fold titration from 100 nM; grey = CRTH2R cells, black = parental cells (no legend on the panel). As for the experimental part:
Cell binding of anti-CRTH2R antibodies was determined by testing on CHO CRTH2R-positive cells (GFP+) and parental CHO cells (GFP−), comparing parental negative and target positive cells to rule out false-positives. Antibodies as listed in Table 14A were titrated starting at 100 nM (15 ug/mL) with 3-fold titrations, for a total of 8 points. Two antibodies (gPCR-51 and gPCR-52) were used as a positive control.
For orientation: Flow cytometry measures light scatter and fluorescence of single cells or particles in a stream.

In assay [2] the target is T1, CRTH2R. The assay is described as follows: cell-based or functional assay.
The target of a further assay is T2, human TIGIT (human, UniProt Q495A1 22-141, limits assumed).
T2 construct: also called hTIGIT
T2 sequence (looked up): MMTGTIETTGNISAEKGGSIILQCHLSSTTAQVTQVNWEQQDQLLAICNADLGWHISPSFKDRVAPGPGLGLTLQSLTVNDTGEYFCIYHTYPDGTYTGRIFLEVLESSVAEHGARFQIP
The assay is described as follows: monovalent affinity of the hTIGIT IgGs; method not named in Example 14.

A value given as a limit tells only on which side of the number the result lay.

The term EC50 denotes the concentration needed to bring the measured effect to its halfway point. For orientation: Kd means the equilibrium constant for the complex coming apart. Low readings indicate a tighter complex, high ones a looser complex.

B1: CRTH2-45 (antibody)
VH: QVQLVESGGGVVQPGRSLRLSCAASGFTFSHYAMHWVRQAPGKGLEWVADISHEGSNKYYADSVKGRFTISRDNSKNTLYLQMNSLRAEDTAVYYCARDGRGSLPRPKGGPTSGGGFSTNIGYGFVVQSYDSSEDSGGAFDIWGQGTLVTVSS
VL: QSVLTQPPSVSAAPGQKVTISCSGTSSNIENNYVSWYQQLPGTAPKLLIYDNVKRPSGIPDRFSGSKSGTSATLGITGLQTGDEADYYCGTWDNTVSAPWVFGGGTKLTVL
notes: CRTH2R IgG
As for B1, the EC50 with CRTH2R [1] came to 23.2 nM. For the same molecule, the “antagonist activity in PGD2-induced cAMP assay at 33 nM IgG” value (from here on “antagonist activity”) with CRTH2R [2] is more than 20%.

B2: CRTH2-19 (antibody, V domains shown)
VH: QVQLVQSGAEVKKPGSSVKVSCKASGGTFSSHAINWVRQAPGQGLEWMGRIIPIVGTTTYAQKFQGRVTITADESTSTAYMELSSLRSEDTAVYYCARDMYYDFDYFGLTLTGDRNDDEVVPADDAFDIWGQGTLVTVSS
VL: QSALTQPASVSGSPGQSITISCTGTSSDVGGYDYVTWYQQHPGKAPKLMIYDVDTRPSGVSNRFSGSKSGNTASLTISGLQAEDEADYYCSSYTTSTSYVFGGGTKLTVL
notes: CRTH2R IgG
As for B2, the EC50 with CRTH2R [1] was determined as 16.7 nM. For the same molecule, the “antagonist activity” value with CRTH2R [2] was more than 20%.

B3: CRTH2 66 (antibody)
heavy chain (variable domain given): QVQLVESGGGVVQPGRSLRLSCAASGFDFSGYGMHWVRQAPGKGLEWVAVISYEGSNKFYADSVKGRFTISRDNSKNTLYLQMNSLRAEDTAVYYCARDLRELECEEWTIEVHGQEFAVHQDRGGVFSRGPCVDPRGVAGSFDVWGQGTLVTVSS
light chain (variable domain given): EIVMTQSPATLSVSPGERATLSCRASQGVGSNLAWYQQKPGQAPRLLIYRTSIRATGIPARFSGSGSGTEFTLTISSLQSEDFAVYYCQQYYSWPPLTFGGGTKVEIK
In the case of B3, the EC50 in the assay with CRTH2R [1] was 3.95 nM.

B4: CRTH2-15 (antibody, V domains shown)
VH: QVQLVQSGAEVKKPGSSVKVSCKASGGTFSTYAIDWVRQAPGQGLEWMGGIIPLFGSPNYAQKFQGRVTITADESTSTAYMELSSLRSEDTAVYYCARANQHFFLYEGTSSSWLHVGHARYGYHYYGMDVWGQGTLVTVSS
VL: QSVLTQPPSVSAAPGQKVTISCSGSGSNIGSNYVSWYQQLPGTAPKLLIYDNIRRPSGIPDRFSGSKSGTSATLGITGLQTGDEADYYCAAWDTRLSAGVFGGGTKLTVL
notes: CRTH2R IgG
Turning to B4, the EC50 with CRTH2R [1] came out at 73.8 nM. Also, the “antagonist activity” value in the assay with CRTH2R [2] was more than 20%.

B5: CRTH2 57 (antibody, V domains shown)
VH: QVQLVQSGAEVKKPGSSVKVSCKASGGTFSSYAMSWVRQAPGQGLEWMGGIIPLFGTTDYAQKFQGRVTITADESTSTAYMELSSLRSEDTAVYYCARANQHFVKIQGAPVSTPVPGFGTTGYHYYGMDVWGQGTLVTVSS
VL: QSVLTQPPSVSAAPGQKVTISCSGSSSNIEDNYVSWYQQLPGTAPKLLIYDNFKRPSGIPDRFSGSKSGTSATLGITGLQTGDEADYYCGTWDTSLSAALFGGGTKLTVL
With B5, the EC50 in the assay with CRTH2R [1] was 158 nM.

B6: CRTH2-24 (antibody, V domains shown)
VH: QVQLVQSGAEVKKPGSSVKVSCKASGGSFSNYGISWVRQAPGQGLEWMGGIIPLIGTANYAQKFQGRVTITADESTSTAYMELSSLRSEDTAVYYCARDMYYDFTLGPQSIGPLGEVVPADDAFDIWGQGTLVTVSS
VL: QSVLTQPPSVSAAPGQKVTISCSGSSSNIGNNFVSWYQQLPGTAPKLLIYDNIQRPSGIPDRFSGSKSGTSATLGITGLQTGDEADYYCGTWDTSLSAVVFGGGTKLTVLR
B6: in the assay with CRTH2R [2], the “antagonist activity” value was more than 20%.

B7: CRTH2-60 (antibody, V domains shown)
VH: QVQLVQSGAEVKKPGSSVKVSCKASGGTFKNYAINWVRQAPGQGLEWMGAIIPKFGAANYAQKFQGRVTITADESTSTAYMELSSLRSEDTAVYYCARANQHFSAVRGLAFGYGYRIGGYHYYGMDVWGQGTLVTVSS
VL: QSVLTQPPSVSAAPGQKVTISCSGSTSNIGINYVSWYQQLPGTAPKLLIYENRKRPSGIPDRFSGSKSGTSATLGITGLQTGDEADYYCATWDASLKNLVFGGGTKLTVL
In the case of B7, in the assay with CRTH2R [2], the “antagonist activity” value is more than 20%.

B8: CRTH2-8 (antibody, V domains shown)
VH: QVQLVQSGAEVKKPGSSVKVSCKASGGTFTDYAISWVRQAPGQGLEWMGGIIPFFGSPNYAQKFQGRVTITADESTSTAYMELSSLRSEDTAVYYCARDMYYDFAAGLEGTITEVFDEEGHQGGTEVVPADDAFDIWGQGTLVTVSS
VL: QSVLTQPPSVSAAPGQKVTISCSGSSSNIGKNYVSWYQQLPGTAPKLLIYDNNQRPSGIPDRFSGSKSGTSATLGITGLQTGDEADYYCGTWDTSLTSVVFGGGTKLTVL
notes: CRTH2R IgG
On to B8, for which the concentration giving a half-maximal response (EC50) in the assay with CRTH2R [1] came out at 135 nM. The “antagonist activity” value with CRTH2R [2] is more than 20%.

B9: CRTH2 39 (antibody, V domains shown)
VH: QVQLVQSGAEVKKPGSSVKVSCKASVDTFSRYSISWVRQAPGQGLEWMGGIIPVFDTTNYAQKFQGRVTITADESTSTAYMELSSLRSEDTAVYYCARDMYYDFGVILGGTAVGTNNGSANEVVPADDAFDIWGQGTLVTVSS
VL: QSVLTQPPSVSAAPGQKVTISCSGSSSNIGDNDVSWYQQLPGTAPKLLIYDDDKRPSGIPDRFSGSKSGTSATLGITGLQTGDEADYYCASWDTSLSGGYVFGGGTKLTVL
Take B9: the EC50 in the assay with CRTH2R [1] amounted to 19 nM.

B10: CRTH2-70 (antibody, V domains shown)
VH: QVQLVQSGAEVKKPGSSVKVSCKASGGTFSNHAIIWVRQAPGQGLEWMGGIIPIFGTPSYAQKFQGRVTITADESTSTAYMELSSLRSEDTAVYYCARDMYYDFDVISAGVVGAGNPEVVPADDAFDIWGQGTLVTVSS
VL: QSVLTQPPSVSAAPGQKVTISCSGSTSNIGNNFVSWYQQLPGTAPKLLIYDNEKRPSGIPDRFSGSKSGTSATLGITGLQTGDEADYYCGTWDERQTDESYVFGGGTKLTVL
For B10, in the assay with CRTH2R [2], the “antagonist activity” value was more than 20%.

B11: TIGIT-55-01 (antibody, V domains shown)
VH: EVQLLESGGGLVQPGGSLRLSCAASGFTFGSYGMSWVRQAPGKGLEWVSSISGSGSTTYYADSVKGRFTISRDNSKNTLYLQMNSLRAEDTAVYYCARVAGSSGWAFDYWGQGTLVTVSS
VL: DIQMTQSPSSLSASVGDRVTITCRASQAISNYLNWYQQKPGKAPKLLIYAASRLQSGVPSRFSGSGSGTDFTLTISSLQPEDFATYYCQESYSTPFTFGGGTKVEIK
notes: hTIGIT IgG
In the assay with human TIGIT, B11 came in with a Kd of 15.9 nM.

B12: TIGIT-55-02 (antibody, V domains shown)
VH: EVQLLESGGGLVQPGGSLRLSCAASGLTFSNYAMTWVRQAPGKGLEWVSGISRSGGSTYYADSVKGRFTISRDNSKNTLYLQMNSLRAEDTAVYYCATLRLYSSGGGIDYWGQGTLVTVSS
VL: DIQMTQSPSSLSASVGDRVTITCRASQYISTYLNWYQQKPGKAPKLLIYAASSLQGGVPSRFSGSGSGTDFTLTISSLQPEDFATYYCQQNYITPLTFGGGTKVEIK
notes: hTIGIT IgG
For the molecule B12, binding with human TIGIT was characterised by a dissociation constant (Kd) of 141 nM.

B13: CRTH2-42 (antibody)
VH: QVQLVESGGGVVQPGRSLRLSCAASGFAFSSYAMHWVRQAPGKGLEWVAVISYEGSNEYYADSVKGRFTISRDNSKNTLYLQMNSLRAEDTAVYYCARDLRELECEEWTVLQYGKFHMRWAESGEGSLSRGPCVDPRGVAGSFDVWGQGTLVTVSS
VL: QSALTQPASVSGSPGQSITISCTGTSSDVGGYRYVSWYQQHPGKAPKLMIYNVNYRPSGVSNRFSGSKSGNTASLTISGLQAEDEADYYCSSYRSSSTLGVFGGGTKLTVL
In the case of B13, in the assay with CRTH2R [2], the “IC50 fold difference of the PGD2 dose response (cAMP) with 100 nM IgG” value was more than 2 fold and the “antagonist activity” value was more than 20%.

B14: CRTH2 35 (antibody, V domains shown)
VH: QVQLVQSGAEVKKPGSSVKVSCKASGGTFRSYAISWVRQAPGQGLEWMGGIIPISGTTNYAQKFQGRVTITADESTSTAYMELSSLRSEDTAVYYCARANQHFTRIFGNYQIYFGHFGYHYYGMDVWGQGTLVTVSS
VL: QSALTQPASVSGSPGQSITISCTGTSSDIGGYEFVSWYQQHPGKAPKLMIYGVSRRPSGVSNRFSGSKSGNTASLTISGLQAEDEADYYCGSYTSSSTPYVFGGGTKLTVL
In the case of B14, the EC50 in the assay with CRTH2R [1] turned out to be 12.6 nM.

B15: CRTH2-74 (antibody)
VH: QVQLVESGGGVVQPGRSLRLSCAASGFSFSEYGIHWVRQAPGKGLEWVAVISYEGSNEYYADSVKGRFTISRDNSKNTLYLQMNSLRAEDTAVYYCARANQHFGPVAGGATPSEEPGSQLTRAELGWDAPPGQESLADELLQLGTEHGYHYYGMDVWGQGTLVTVSS
VL: QSVLTQPPSVSAAPGQKVTISCSGSTSNIGKNYVSWYQQLPGTAPKLLIYDDDERPSGIPDRFSGSMSGTSATLGITGLQTGDEADYYCEAWDADLSGAVFGGGTKLTVL
notes: CRTH2R IgG
B15: the EC50 with CRTH2R [1] is 8.61 nM. For the same molecule, the “antagonist activity” value with CRTH2R [2] was more than 20%.

B16: CRTH2-28 (antibody, V domains shown)
VH: QVQLVQSGAEVKKPGSSVNVSCKASGGTFSDYAFSWVRQAPGQGLEWMGAIIPFFGTVNYAQKFQGRVTITADESTSTAYMELSSLRSEDTAVYYCARDMYYDFATGTGGPEDDLYPQGELNDGYRIEVVPADDAFDIWGQGTLVTVSS
VL: QSVLTQPPSVSAAPGQKVTISCSGSISNIGKNYVSWYQQLPGTAPKLLIYDDHKRPSGIPDRFSGSKSGTSATLGITGLQTGDEADYYCATWDRGLSAAVFGGGTKLTVL
For the molecule B16, the “antagonist activity” value with CRTH2R [2] is more than 20%.
